Reference: US20230227838A1, “ENHANCED CELL SURVIVAL AGAINST BIOTIC AND ABIOTIC STRESSES THROUGH SALICYLICK ACID-INDUCED NPR1 CONDENSATES” (priority 2020, published 2023)

B1: UBP24, ubiquitin-specific protease 24 (protein, UniProt Q9FPS3 1-551, looked up)
Ubiquitin carboxyl-terminal hydrolase 24: MSEKKVFVFGSFTEHETRSFFEQKPTKDPQNSKDKCVGSIQFGSLNLAAENSSVNTNGELKKGEADGTVKSAGSQERLDASRPASSDKNNDSDAKLPRKNSLRVPEHVVQNGIIKEISESNKSLNNGVAVKTDPIGLDNLSMSDGESDPVYKASSSKFQALDNEDFSSDSSSGSIQRKKNLKVPTESVPPVKDFTPRGLINAGNLCFLNATLQALLSCSPFVQLLQKIQLQDIPKADSPTLAAFSEFISELDVPSSSSIRNNVTVVEAGRPFRPAMFEGVLRNFTPDVLNNMSGRPRQEDAQEFLSFIMDQMHDELLKLKEQSPKVTASKSSVISSANDDGDEWETVGPKNKSAVTRTQSFVPSELSEIFGGQLKSVVKAKGTKASATVQPYLLLHLDIHPDGVQGIEDALHLFSAQEDLEGYRASVTGKTGVVSASKSIKIQKLSKIMILHLMRFSYGSQGSTKLRKGVKFPLELNLNRSHLVSLSNESLRYELVATITHHGWDPSKGHYTTDARRKNGQWLRFDDASVTPIGTKLVLHDQAYVLFYKQV
B2: ADL3, CF1, DL3, DRP2B, dynamin-like 3 (protein, UniProt Q9LQ55 1-920, looked up)
Dynamin-2B: MEAIDELSQLSDSMRQAASLLADEDPDETSSSRRPATSLNVVALGNVGAGKSAVLNSLIGHPVLPTGENGATRAPIIIDLSREESLSSKAIILQIDNKNQQVSASALRHSLQDRLSKGASGRGRDEIYLKLRTSTAPPLKLIDLPGLDQRIVDDSMIGEHAQHNDAILLVVVPASQASEISSSRALKIAKEYDPESTRTVGIISKIDQAAENPKSLAAVQALLSNQGPPKTTDIPWVALIGQSVSIASAQSGGSENSLETAWRAESESLKSILTGAPQSKLGRIALVDTLASQIRSRMKLRLPNILTGLQGKSQIVQDELARLGEQLVSSAEGTRAIALELCREFEDKFLLHLAGGEGSGWKVVASFEGNFPNRIKKLPLDRHFDLNNVKRIVLEADGYQPYLISPEKGLRSLIKTVLELAKDPARLCVDEVHRVLVDIVSASANATPGLGRYPPFKREVVAIASAALDGFKNEAKKMVVALVDMERAFVPPQHFIRLVQRRMERQRREEELKGRSSKKGQDAEQSLLNRATSPQPDGPSSTGGSLKSLRDKLMPQDKDKDKEKETPEVSGLKTAGPEGEITAGYLMKKSAKTNGWSRRWFVLNEKTGKLGYTKKQEERNFRGTVTLEECSIEEISDDEGEKSKSSKDKKSNGPDSKGPGLVFKITCRVPYKTVLKAHNALVLKAESMVDKNEWINKLQKVIQARGGQVGSASMRQSLSEGSLDKMVRKPVDPEEELRWMSQEVRGYVEAVLNSLAANVPKAVVLCQVEKSKEDMLNQLYSSISAIGNERIESLIQEDQNVKRRRDRYQKQSSLLSKLTRQLSIHDNRAAAASSWSDNSGTESSPRTNGGSSGEDWMNAFNAAASGPDSLKRYGSGGHSRRYSDPAQNGEDSSGSGGSSRRTTPNRLPPAPPQSGSSYRY
B3: ALDH7B4, aldehyde dehydrogenase 7B4 (protein, UniProt Q9SYG7 1-508, looked up)
Aldehyde dehydrogenase family 7 member B4: MGSANNEYEFLSEIGLTSHNLGSYVAGKWQANGPLVSTLNPANNQPIAQVVEASLEDYEQGLKACEEAAKIWMQVTAPKRGDIVRQIGDALRSKLDYLGRLLSLEMGKILAEGIGEVQEVIDMCDFAVGLSRQLNGSVIPSERPNHMMLEMWNPLGIVGVITAFNFPCAVLGWNACIALVCGNCVVWKGAPTTPLITIAMTKLVAEVLEKNNLPGAIFTAMCGGAEIGEAIAKDTRIPLVSFTGSSRVGSMVQQTVNARSGKTLLELSGNNAIIVMDDADIQLAARSVLFAAVGTAGQRCTTCRRLLLHESVYDKVLEQLLTSYKQVKIGNPLEKGTLLGPLHTPESKKNFEKGIEVIKSQGGKILTGGKAVEGEGNFVEPTIIEISADAAVVKEELFAPVLYVLKFKSFGEAVAINNSVPQGLSSSIFTRNPENIFRWIGPLGSDCGIVNVNIPTNGAEIGGAFGGEKATGGGREAGSDSWKQYMRRSTCTINYGNELPLAQGINFG
B4: VLN2, villin 2 (protein, UniProt O81644 1-976, looked up)
Villin-2: MSTKVLDPAFQGAGQKPGTEIWRIENFEAVPVPKSEHGKFYMGDTYIVLQTTQNKGGAYLFDIHFWIGKDTSQDEAGTAAVKTVELDAVLGGRAVQHREIQGHESDKFLSYFKPCIIPLEGGVASGFKTVEEEVFETRLYTCKGKRAIRLKQVPFARSSLNHDDVFILDTEEKIYQFNGANSNIQERAKALEVVQYLKDKYHEGTCDVAIVDDGKLDTESDSGAFWVLFGGFAPIGRKVANDDDIVPESTPPKLYCITDGKMEPIDGDLSKSMLENTKCYLLDCGAEIYIWVGRVTQVDERKAASQSAEEFLASENRPKATHVTRVIQGYESHSFKSNFDSWPSGSATPGNEEGRGKVAALLKQQGVGLKGIAKSAPVNEDIPPLLESGGKLEVWYVNGKVKTPLPKEDIGKLYSGDCYLVLYTYHSGERKDEYFLSCWFGKKSIPEDQDTAIRLANTMSNSLKGRPVQGRIYEGKEPPQFVALFQPMVVLKGGLSSGYKSSMGESESTDETYTPESIALVQVSGTGVHNNKAVQVETVATSLNSYECFLLQSGTSMFLWHGNQSTHEQLELATKVAEFLKPGITLKHAKEGTESSTFWFALGGKQNFTSKKASSETIRDPHLFSFAFNRGKFQVEEIYNFAQDDLLTEDIYFLDTHAEVFVWVGQCVEPKEKQTVFEIGQKYIDLAGSLEGLHPKVPIYKINEGNEPCFFTTYFSWDATKAIVQGNSFQKKASLLFGTHHVVEDKSNGGNQGLRQRAEALAALNSAFNSSSNRPAYSSQDRLNESHDGPRQRAEALAALSSAFNSSSSSTKSPPPPRPVGTSQASQRAAAVAALSQVLVAENKKSPDTSPTRRSTSSNPADDIPLTEAKDEEEASEVAGLEAKEEEEVSPAADETEAKQETEEQGDSEIQPSGATFTYEQLRAKSENPVTGIDFKRREAYLSEEEFQSVFGIEKEAFNNLPRWKQDLLKKKFDLF
B5: PCS1, phytochelatin synthase 1 (PCS1) (protein, UniProt Q9S7Z3 1-485, looked up)
Glutathione gamma-glutamylcysteinyltransferase 1: MAMASLYRRSLPSPPAIDFSSAEGKLIFNEALQKGTMEGFFRLISYFQTQSEPAYCGLASLSVVLNALSIDPGRKWKGPWRWFDESMLDCCEPLEVVKEKGISFGKVVCLAHCSGAKVEAFRTSQSTIDDFRKFVVKCTSSENCHMISTYHRGVFKQTGTGHFSPIGGYNAERDMALILDVARFKYPPHWVPLKLLWEAMDSIDQSTGKRRGFMLISRPHREPGLLYTLSCKDESWIEIAKYLKEDVPRLVSSQHVDSVEKIISVVFKSLPSNFNQFIRWVAEIRITEDSNQNLSAEEKSRLKLKQLVLKEVHETELFKHINKFLSTVGYEDSLTYAAAKACCQGAEILSGSPSKEFCCRETCVKCIKGPDDSEGTVVTGVVVRDGNEQKVDLLVPSTQTECECGPEATYPAGNDVFTALLLALPPQTWSGIKDQALMHEMKQLISMASLPTLLQEEVLHLRRQLQLLKRCQENKEEDDLAAPAY
B6: GPX8, glutathione peroxidase 8 (protein, UniProt Q8LBU2 1-167, looked up)
Probable glutathione peroxidase 8: MATKEPESVYELSIEDAKGNNLALSQYKDKVLLIVNVASKCGMTNSNYTELNELYNRYKDKGLEILAFPCNQFGDEEPGTNDQITDFVCTRFKSEFPIFNKIEVNGENASPLYKFLKKGKWGIFGDDIQWNFAKFLVDKNGQAVQRYYPTTSPLTLEHDIKNLLNIS
B7: RH39 (protein, UniProt Q56X76 1-621, looked up)
DEAD-box ATP-dependent RNA helicase 39: MVGASRTILSLSLSSSLFTFSKIPHVFPFLRLHKPRFHHAFRPLYSAAATTSSPTTETNVTDPDQLKHTILLERLRLRHLKESAKPPQQRPSSVVGVEEESSIRKKSKKLVENFQELGLSEEVMGALQELNIEVPTEIQCIGIPAVMERKSVVLGSHTGSGKTLAYLLPIVQLMREDEANLGKKTKPRRPRTVVLCPTRELSEQVYRVAKSISHHARFRSILVSGGSRIRPQEDSLNNAIDMVVGTPGRILQHIEEGNMVYGDIAYLVLDEADTMFDRGFGPEIRKFLAPLNQRALKTNDQGFQTVLVTATMTMAVQKLVDEEFQGIEHLRTSTLHKKIANARHDFIKLSGGEDKLEALLQVLEPSLAKGSKVMVFCNTLNSSRAVDHYLSENQISTVNYHGEVPAEQRVENLKKFKDEEGDCPTLVCTDLAARGLDLDVDHVVMFDFPKNSIDYLHRTGRTARMGAKGKVTSLVSRKDQMLAARIEEAMRNNESLESLTTDNVRRDAARTHITQEKGRSVKQIREVSKQRNSRDKPSSSSPPARSTGGKTPVRKSSSSSFSKPRKASSPPEKSSKPKRKILKTVGSRSIAARGKTGSDRRPGKKLSVVGFRGKSSSARAS
B8: GRF6, G-box regulating factor 6 (protein, UniProt P48349 1-248, looked up)
14-3-3-like protein G-BOX factor 14 lambda: MAATLGRDQYVYMAKLAEQAERYEEMVQFMEQLVTGATPAEELTVEERNLLSVAYKNVIGSLRAAWRIVSSIEQKEESRKNDEHVSLVKDYRSKVESELSSVCSGILKLLDSHLIPSAGASESKVFYLKMKGDYHRYMAEFKSGDERKTAAEDTMLAYKAAQDIAAADMAPTHPIRLGLALNFSVFYYEILNSSDKACNMAKQAFEEAIAELDTLGEESYKDSTLIMQLLRDNLTLWTSDMQEQMDEA
B9: PDIL2-2, PDI-like 2-2 (protein, UniProt Q9MAU6 27-447, looked up)
Protein disulfide-isomerase like 2-2: LYGSSSPVLQLTPSNFKSKVLNSNGVVLVEFFAPWCGHCQSLTPTWEKVASTLKGIATVAAIDADAHKSVSQDYGVRGFPTIKVFVPGKPPIDYQGARDAKSISQFAIKQIKALLKDRLDGKTSGTKNGGGSSEKKKSEPSASVELNSSNFDELVTESKELWIVEFFAPWCGHCKKLAPEWKKAANNLKGKVKLGHVNCDAEQSIKSRFKVQGFPTILVFGSDKSSPVPYEGARSASAIESFALEQLESNAGPAEVTELTGPDVMEDKCGSAAICFVSFLPDILDSKAEGRNKYLEMLLSVADKFKKDPYGFVWVAAGKQPDLEKRVGVGGYGYPAMVALNAKKGAYAPLKSGFEVKHLKDFVKEAAKGGKGNLPIDGTMEIVKTEAWDGKDGEVVDADEFSLEDLMGNDDEASTESKDDL
B10: FPA, RNA binding (protein, UniProt Q8LPQ9 1-901, looked up)
Flowering time control protein FPA: MALSMKPFRADDSGFQSNNLWVGSLTPETTESDLTELFGRYGDIDRITVYSSRGFAFIYYRHVEEAVAAKEALQGANLNGSQIKIEYARPAKPCKSLWVGGIGPNVSKDDLEEEFSKFGKIEDFRFLRERKTAFIDYYEMDDALQAKSMNGKPMGGSFLRVDFLRSQAPKKEQWAGSYDNRNGNMNHKPQYPHSYEDFKGDVQPSKVLWIGFPPTATQCNDEQILHNAMILFGEIERVKSYPSRNFALVEFRSAEEARQCKEGLQGRLFNNPRIKIMYSNDELPPEQDDTSFYSGMKRSRTDMFNNDPSFVSSPHSTGIPGSMRPLRGTNERSYNGAEYNDVVGKEPNWRRPSANGTGILPSPTGPGILPSPAQGTRRPMRSNPDSWEGYDPAQLVRESKRTRRDGSVDGFTPMGVDERSFGRGSVAARPIRGPPDSDHIWRGMIAKGGTPVCCARCVPMGKGIETKLPEVVNCSARTDLNMLAKHYAVAIGCEIVFFVPDREEDFASYTEFLRYLSSKDRAGVAKLDDGTTLFLVPPSDFLTDVLQVTRQERLYGVVLKLPPPAVPVTASYRQESQSNPLHYMDQARDSPANASHSLYPPRENYIRGAPEHLTAASKPSVSEPLRIPNNAAPQAGVSLTPELLATLASILPATSQPAAPESHQPMSGPSTVVSTAHQSNGLYNGEAPSQAWKRGPQTVHDASNQSFQQYGNQYTPAGQLPPPPSRYPPASNNPNYTSGMVHGNMQYQSQSVNMPQLSPLPNMPHNNYSMYTQGSSNHPVSQPMVQQYQPEASMPNQNYGPIPSYQQANFHGVTTNQAQNLNPSQFQAAMQPPADKANLEPQNQALRLQPMISGDGQGTTDGEVDKNQRYQSTLQFAANLLLQIQQKQQQQSSGTPAGQGP
B11: NTF2B, nuclear transport factor 2B (protein, UniProt Q9C7F5 2-126, looked up)
Nuclear transport factor 2B: SQMDPDAVSKAFVEHYYSTFDTNRVGLAGLYQEASMLTFEGQKIQGVQSIVAKLTSLPFQQCKHHISTVDCQPSGPASGMLVFVSGNLQLAGEEHALKFSQMFHLMPTPQGSFYVFNDIFRLNYA

target: sim3-GFP (Arabidopsis thaliana) (UniProt P93002); test: sim3-GFP IP, LC-MS/MS
Sequence (P93002 other isoform, or with tags, fused parts or gaps): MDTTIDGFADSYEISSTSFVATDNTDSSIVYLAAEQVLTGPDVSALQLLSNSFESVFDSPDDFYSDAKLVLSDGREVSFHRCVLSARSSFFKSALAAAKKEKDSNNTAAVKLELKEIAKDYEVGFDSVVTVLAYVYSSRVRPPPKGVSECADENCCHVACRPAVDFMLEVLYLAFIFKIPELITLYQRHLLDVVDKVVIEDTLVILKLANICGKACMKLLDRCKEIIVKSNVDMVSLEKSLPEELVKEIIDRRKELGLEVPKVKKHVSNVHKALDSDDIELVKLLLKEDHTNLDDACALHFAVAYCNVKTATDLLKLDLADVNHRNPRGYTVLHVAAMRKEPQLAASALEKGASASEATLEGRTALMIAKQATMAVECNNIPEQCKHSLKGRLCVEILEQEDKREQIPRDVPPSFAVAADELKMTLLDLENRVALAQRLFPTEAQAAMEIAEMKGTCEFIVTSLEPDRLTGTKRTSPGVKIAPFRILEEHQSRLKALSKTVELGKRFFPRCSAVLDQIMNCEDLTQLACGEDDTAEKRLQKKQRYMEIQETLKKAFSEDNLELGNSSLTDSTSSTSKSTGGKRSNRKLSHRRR

Normalized Fold Change: SA vs Mock	Binder
2580 fold	B1
2.5 fold	B2
2.01 fold	B3
3.54 fold	B4
3.43 fold	B5
19.6 fold	B6
46.9 fold	B7
2.01 fold	B8
2.2 fold	B9
4.87 fold	B10
11.2 fold	B11
